# Source: patent publication US20180371093A1 (Novartis, published 2018)
# B1: BAP049-Clone-E (antibody, human IgG4 S228P, kappa)
# heavy: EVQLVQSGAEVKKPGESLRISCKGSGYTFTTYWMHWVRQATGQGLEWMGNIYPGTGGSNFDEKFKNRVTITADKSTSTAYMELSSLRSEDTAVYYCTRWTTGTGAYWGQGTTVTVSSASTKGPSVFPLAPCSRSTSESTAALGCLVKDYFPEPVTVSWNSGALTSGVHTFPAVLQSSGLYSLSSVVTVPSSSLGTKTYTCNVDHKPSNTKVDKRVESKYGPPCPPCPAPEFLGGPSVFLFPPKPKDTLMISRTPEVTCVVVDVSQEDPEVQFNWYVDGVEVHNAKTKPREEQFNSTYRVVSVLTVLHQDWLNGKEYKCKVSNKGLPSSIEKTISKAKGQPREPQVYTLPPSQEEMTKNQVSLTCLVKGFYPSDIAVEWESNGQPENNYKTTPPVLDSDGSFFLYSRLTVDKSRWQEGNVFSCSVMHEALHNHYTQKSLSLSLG
# light: EIVLTQSPATLSLSPGERATLSCKSSQSLLDSGNQKNFLTWYQQKPGQAPRLLIYWASTRESGVPSRFSGSGSGTDFTFTISSLEAEDAATYYCQNDYSYPYTFGQGTKVEIKRTVAAPSVFIFPPSDEQLKSGTASVVCLLNNFYPREAKVQWKVDNALQSGNSQESVTEQDSKDSTYSLSSTLTLSKADYEKHKVYACEVTHQGLSSPVTKSFNRGEC
# Target: Programmed Death 1 (PD-1) (UniProt Q15116 25-167, limits assumed)
# Assay: cell-based or functional assay
# Programmed Death 1 (PD-1), sequence (Q15116 25-167 limits assumed): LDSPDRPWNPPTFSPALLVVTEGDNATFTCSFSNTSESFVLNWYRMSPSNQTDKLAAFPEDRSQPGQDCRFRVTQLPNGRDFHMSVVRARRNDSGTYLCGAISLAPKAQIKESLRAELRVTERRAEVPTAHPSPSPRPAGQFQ
binder,measurement,value
B1,ex vivo EC50 for PD-1 blockade (IL-2 change in SEB ex-vivo assay),0.42 µg/mL
